# Experimental data reported in publication PMC12016518.
# Molecular target: T1, VPA1365-His (Vibrio parahaemolyticus RIMD2210633) (UniProt Q87GF1)
# T1 sequence: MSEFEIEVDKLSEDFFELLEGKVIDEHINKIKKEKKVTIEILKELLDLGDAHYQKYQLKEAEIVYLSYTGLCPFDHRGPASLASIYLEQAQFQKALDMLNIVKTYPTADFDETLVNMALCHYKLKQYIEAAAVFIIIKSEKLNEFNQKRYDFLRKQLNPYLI
# Assay: EMSA
# Settings: EMSA: 30 nM 5'-FAM probe, 20 µL with 4 µL 5x buffer (10 mM NaCl, 0.1 mM DTT, 0.1 mM EDTA, 10 mM Tris, pH 7.4; unclear if 5x or final), 25°C, 0.5 h, 6% PAGE
row,Sequence,binding
1,GCGCATAGCTGTTATAAGAATCCTCAATTCATTTCAATTAATGAGTATTCAGTCAATTAATAGAGCGATTTACTTCATAAAACCATTTTATTTTTATGGACTTAGCTCAAGAAATGACAGCATTATTAACTAATTTTAATAATTTGAGGAATGCATCAATAACTATTTCATATAAACACGATTTACTGTTGACTAAGTTTTATAAATATCGATGATCAGCAAGTTAAACTGAACGAAGTTTTATTCATTTGAAAGCGCAAGAACATGACTATCGTCGACCTGCAGGCA (double strand) [scrG promoter (PscrG)],binds
2,TGCCTGCAGGTCGACGATCACAAGCAACAAAATTCATATTACTTCAACTAACTCAGTAAGTTGTAAGTAATTCATCATTAAAAAGGGCCACTAGGCCCTTTCTTTTTATCCATTAAAAAATAGCATTACTCGCAAAACTCTGCATACGATATGCAACTTTCTACCAAAGAGTTTTACCTCACTCGAGACCCCATCTCTTCCCCATTTTCAACCTTTATGAAGTCTCCATAATCCTTCGCTAATGCAAGGGCATTATTTATTTCATTAAGAAGGAAAG (double strand) [pilA promoter],binds
3,CGCTCTATAATGCTGACCCTTTTATCAATACTGTACTTATTTCCACAACAAAAAAGCGTACAGTTATTTACTTTTTTACCTTTAACTTGCTGTGAAAATAATATCGTCGACCTGCAGGCA (double strand) [mshA promoter],binds
